Residue numbers refer to the chain shown, from its start. Like-named read-outs stand apart in the source and are kept apart here. One block for each binder: values may come before it.
Tests used:
cyno K1 = target: T1, cyno K1 (cynomolgus monkey, UniProt Q28864 29-115 (rhesus entry), limits assumed); experiment: not told
T1 construct: also called K1 domain alone
T1 chain: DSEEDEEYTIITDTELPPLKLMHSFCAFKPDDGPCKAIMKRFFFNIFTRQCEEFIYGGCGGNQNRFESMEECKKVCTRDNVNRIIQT

rabTFPI K1K2 [1] = target: T2, rabTFPI K1K2 (rabbit, limits assumed); experiment: SPR, antibody ligand, TFPI analyte
T2 construct: also called Rabbit TFPI K1K2; rabbit TFPI
T2 chain: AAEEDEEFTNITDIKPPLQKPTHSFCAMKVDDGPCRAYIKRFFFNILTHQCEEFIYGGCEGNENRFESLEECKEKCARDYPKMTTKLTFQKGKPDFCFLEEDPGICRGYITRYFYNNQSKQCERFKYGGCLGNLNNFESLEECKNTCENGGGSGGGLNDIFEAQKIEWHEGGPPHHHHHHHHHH
Method: (§1) The flow cells were activated by injecting a 1:1 mixture of 400 mM 1-Ethyl-3-(3-dimethylaminopropyl) carbodiimide hydrochloride (EDC) and N-hydroxysuccinimide (NHS) for 7 minutes at a flow rate of 10 μl/minute. Anti-human IgG antibody was diluted to 25 μg/ml in 10 mM Sodium Acetate pH 5.0 and injected over all flow cells for 7 minutes at 10 ul/minute. All flow cells were blocked with 1 M Ethanolamine-HCL (ETH) for 7 minutes at 10 μl/minute. Final immobilization level of the capture antibody was approximately 10,000 resonance units (RU). The running buffer for immobilization and kinetics was 10 mM HEPES pH 7.4, 150 mM NaCl, 3 mM EDTA, 0.05% (v/v) Tween-20 (HBS-EP+). […] Flow cell 1 was used as a reference surface. […] At the end of each cycle, the entire anti-IgG surface was regenerated by a 60 second pulse of 3 M MgCl2. Kinetic assays were conducted at 25° C. at a collection rate of 10 Hz on a BIAcore T200 instrument (GE Healthcare). Rate constants and affinities were determined by fitting the data to a 1:1 model in BIAcore T200 Evaluation software version 1.0 (GE).

murTFPI K1K2 [2] = target: T3, murTFPI K1K2 (mouse); experiment: SPR, antibody ligand, TFPI analyte;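 also: surface plasmon resonance on a BIAcore T200 at 25 °C, test antibody captured on immobilized anti-human IgG, TFPI K1K2 flowed as analyte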
T3 construct: also called Mouse TFPI K1K2; mouse TFPI
T3 chain: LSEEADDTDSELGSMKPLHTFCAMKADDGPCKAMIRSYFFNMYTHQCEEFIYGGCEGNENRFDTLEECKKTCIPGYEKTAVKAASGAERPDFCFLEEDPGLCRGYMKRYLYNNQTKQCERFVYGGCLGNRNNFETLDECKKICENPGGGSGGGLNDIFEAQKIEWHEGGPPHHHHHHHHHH
Method: as §1

cynTFPI K1K2 [3] = target: T4, cynTFPI K1K2 (cynomolgus monkey); experiment: SPR, antibody ligand, TFPI analyte;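 also: surface plasmon resonance on a BIAcore T200 at 25 °C, test antibody captured on immobilized anti-human IgG, TFPI K1K2 flowed as analyte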
T4 construct: also called Cynomolgus Monkey TFPI K1K2; cyno TFPI K1K2
Method: as §1

humTFPI K1K2 [4] = target: T5, humTFPI K1K2 (human); experiment: SPR, antibody ligand, TFPI analyte
T5 construct: Biotinylated on the AviTag for ELISA; also called Human TFPIα K1K2; humTFPI K1K2-aviHis10
Method: as §1

cyno TFPI K2 = target: T6, cyno TFPI K2 (cynomolgus monkey, UniProt Q28864 116-177 (rhesus entry), limits assumed); experiment: not told
T6 construct: K2 fragment cut out of cynTFPI K1K2 with human neutrophil elastase, residual AviTag trimmed with AspN; also called Cynomolgus TFPI K2 domain; cyno K2
Method: Based on buried surface area (BSA) and percent BSA (% BSA) for residues at the Fab TFPI K1K2 interface, the epitope and paratope of the complex were determined.

humTFPI K1K2 [5] = target: T5, humTFPI K1K2; experiment: cell-based or functional assay
rabTFPI K1K2 [6] = target: T2, rabTFPI K1K2; experiment: SPR, summary table
Method: as §1

murTFPI K1K2 [7] = target: T3, murTFPI K1K2; experiment: SPR, summary table
Method: as §1

cynTFPI K1K2 [8] = target: T4, cynTFPI K1K2; experiment: SPR, summary table
Method: as §1

humTFPI K1K2 [9] = target: T5, humTFPI K1K2; experiment: SPR, summary table
Method: as §1

rabTFPI K1K2 [10] = target: T2, rabTFPI K1K2; experiment: SPR, antibody ligand, TFPI analyte
Method: as §1

humTFPI K1K2 [11] = target: T5, humTFPI K1K2; experiment: SPR, antibody ligand, TFPI analyte; remark: listed apart in the source
Method: as §1

rabTFPI K1K2 [12] = target: T2, rabTFPI K1K2; experiment: ELISA, biotinylated TFPI on streptavidin plate
humTFPI K1K2 [13] = target: T5, humTFPI K1K2; experiment: ELISA, biotinylated TFPI on streptavidin plate
humTFPI K1K2 [14] = target: T5, humTFPI K1K2; experiment: SPR, antibody ligand, TFPI analyte; remark: listed apart in the source
Method: as §1

ratTFPI K1K2 = target: T7, ratTFPI K1K2 (rat); experiment: SPR, summary table
T7 chain: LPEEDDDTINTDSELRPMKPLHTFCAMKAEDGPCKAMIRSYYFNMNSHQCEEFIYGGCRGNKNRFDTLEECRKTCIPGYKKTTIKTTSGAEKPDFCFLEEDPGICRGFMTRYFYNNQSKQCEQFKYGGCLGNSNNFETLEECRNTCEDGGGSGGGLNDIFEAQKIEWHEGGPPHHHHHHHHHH
Method: as §1

rabTFPI K1K2 [15] = target: T2, rabTFPI K1K2; experiment: ELISA, biotinylated TFPI on streptavidin plate
humTFPI K1K2 [16] = target: T5, humTFPI K1K2; experiment: ELISA, biotinylated TFPI on streptavidin plate; remark: listed apart in the source
humTFPI K1K2 [17] = target: T5, humTFPI K1K2; experiment: cell-based or functional assay; remark: listed apart in the source

B1: 2A8 (antibody, human IgG1, lambda, V domains shown)
VH: QVQLVESGGGLVQPGGSLRLSCAASGFTFRSYGMSWVRQAPGKGLEWVSSIRGSSSSTYYADSVKGRFTISRDNSKNTLYLQMNSLRAEDTAVYYCARKYRYWFDYWGQGTLVTVSS
VL: DIELTQPPSVSVAPGQTARISCSGDNLRNYYAHWYQQKPGQAPVVVIYYDNNRPSGIPERFSGSNSGNTATLTISGTQAEDEADYYCQSWDDGVPVFGGGTKLTVLG
binding result (cyno K1): no binding
Kd (rabTFPI K1K2 [1]): 1.69 nM
koff (rabTFPI K1K2 [1]): 0.00123 s⁻¹
kon (rabTFPI K1K2 [1]): 730000 M⁻¹ s⁻¹
Kd (murTFPI K1K2 [2]): 33.6 nM
koff (murTFPI K1K2 [2]): 0.00632 s⁻¹
kon (murTFPI K1K2 [2]): 191000 M⁻¹ s⁻¹
Kd (cynTFPI K1K2 [3]): 13.2 nM
koff (cynTFPI K1K2 [3]): 0.00306 s⁻¹
kon (cynTFPI K1K2 [3]): 237000 M⁻¹ s⁻¹
Kd (humTFPI K1K2 [4]): 10.6 nM
koff (humTFPI K1K2 [4]): 0.00377 s⁻¹
kon (humTFPI K1K2 [4]): 355000 M⁻¹ s⁻¹
binding result (cyno TFPI K2): no binding

B4: hz4D8 (antibody, human IgG1, kappa, V domains shown)
VH: EVQLVESGGGLVQPGGSLRLSCAASGYTFTDYNLDWVRQAPGKGLEWVADINPINGATLYNQKFKGRFTISRDQAKNSLYLQMNSLRAEDTAVYYCARYYGDYDAMDYWGQGTLVTVSS
VL: DIQMTQSPSSLSASVGDRVTITCKASQDVHTAVAWYQQKPGKAPKLLIYWASTRHTGVPSRFSGSGSGTDYTLTISSLQPEDFATYYCQQHYTTPYTFGQGTKLEIKR
notes: also called 4D8-Vk1.1 × VH1.4; 4D8 Vk 1.1 × VH 1.4
Kd (humTFPI K1K2 [14]): 0.293 nM
koff (humTFPI K1K2 [14]): 5.28e-05 s⁻¹
kon (humTFPI K1K2 [14]): 221000 M⁻¹ s⁻¹
Kd (rabTFPI K1K2 [1]): 0.502 nM
koff (rabTFPI K1K2 [1]): 0.0029 s⁻¹
kon (rabTFPI K1K2 [1]): 3.16e+06 M⁻¹ s⁻¹
Kd (cynTFPI K1K2 [3]): 0.067 nM
koff (cynTFPI K1K2 [3]): 0.00195 s⁻¹
kon (cynTFPI K1K2 [3]): 2.93e+07 M⁻¹ s⁻¹
Kd (humTFPI K1K2 [4]): 0.42 nM
koff (humTFPI K1K2 [4]): 0.00132 s⁻¹
kon (humTFPI K1K2 [4]): 3.16e+06 M⁻¹ s⁻¹
FVIIa/TF/Xa EC50 (humTFPI K1K2 [5]): 0.4 nM
Xa Inhibition Assay EC50 (humTFPI K1K2 [5]): 6.92 nM
Kd (rabTFPI K1K2 [6]): 0.502 nM
binding result (ratTFPI K1K2): no binding
binding result (murTFPI K1K2 [7]): no binding
Kd (cynTFPI K1K2 [8]): 0.067 nM
Kd (humTFPI K1K2 [9]): 0.42 nM
EC50 (rabTFPI K1K2 [15]): 0.0716 nM
EC50 (humTFPI K1K2 [16]): 0.0493 nM
FXa EC50 (humTFPI K1K2 [17]): 1.87 nM
FXa-FVIIa EC50 (humTFPI K1K2 [17]): 1.57 nM

Second part, the binder after the results:

binding result (cyno K1): no binding
Kd (rabTFPI K1K2 [1]): 0.145 nM
koff (rabTFPI K1K2 [1]): 0.000277 s⁻¹
kon (rabTFPI K1K2 [1]): 1.92e+06 M⁻¹ s⁻¹
Kd (murTFPI K1K2 [2]): 0.455 nM
koff (murTFPI K1K2 [2]): 0.00117 s⁻¹
kon (murTFPI K1K2 [2]): 2.54e+06 M⁻¹ s⁻¹
Kd (cynTFPI K1K2 [3]): 0.637 nM
koff (cynTFPI K1K2 [3]): 0.000809 s⁻¹
kon (cynTFPI K1K2 [3]): 1.25e+06 M⁻¹ s⁻¹
Kd (humTFPI K1K2 [4]): 0.327 nM
koff (humTFPI K1K2 [4]): 0.000381 s⁻¹
kon (humTFPI K1K2 [4]): 1.16e+06 M⁻¹ s⁻¹
binding result (cyno TFPI K2): no binding
FVIIa/TF/Xa EC50 (humTFPI K1K2 [5]): 4.84 nM
Xa Inhibition Assay EC50 (humTFPI K1K2 [5]): 2.42 nM
Kd (rabTFPI K1K2 [6]): 0.145 nM
Kd (murTFPI K1K2 [7]): 0.455 nM
Kd (cynTFPI K1K2 [8]): 0.637 nM
Kd (humTFPI K1K2 [9]): 0.327 nM
B2: 2A8-200 (antibody, human IgG1, lambda, V domains shown)
VH: B1 VH with S35D, S55R, K99L
VL: B1 VL with Y48F, N51V, D91W
notes: also called Anti-TFPI-2A8-200

Kd (rabTFPI K1K2 [10]): 0.63 nM
koff (rabTFPI K1K2 [10]): 0.00126 s⁻¹
kon (rabTFPI K1K2 [10]): 2.01e+06 M⁻¹ s⁻¹
Kd (humTFPI K1K2 [11]): 1.19 nM
koff (humTFPI K1K2 [11]): 0.00114 s⁻¹
kon (humTFPI K1K2 [11]): 958000 M⁻¹ s⁻¹
EC50 (rabTFPI K1K2 [12]): 0.068 nM
EC50 (humTFPI K1K2 [13]): 0.0577 nM
B3: mu-hu 4D8 chimera (antibody, human IgG1, kappa)
light: DIVMTQSHKFMSTSVGDRVSITCKASQDVHTAVAWYQQKPGQSPRLLIYWASTRHTGVPDRFTGCGSGTDYTLTISSVQAEDLALYYCQQHYTTPYTFGGGTKLEMKRTVAAPSVFIFPPSDEQLKSGTASVVCLLNNFYPREAKVQWKVDNALQSGNSQESVTEQDSKDSTYSLSSTLTLSKADYEKHKVYACEVTHQGLSSPVTKSFNRGEC
heavy: EVLLQQSGPELVKPGASVKIPCKASGYTFTDYNLDWVKQSHGKSLEWIGDINPINGATLYNQKFKGKATLTVDQSSSTAYMELRSLTSEDTAVYYCSIYYGDYDAMDYWGQGASVTVSSASTKGPSVFPLAPSSKSTSGGTAALGCLVKDYFPEPVTVSWNSGALTSGVHTFPAVLQSSGLYSLSSVVTVPSSSLGTQTYICNVNHKPSNTKVDKKVEPKSCDKTHTCPPCPAPEAAGAPSVFLFPPKPKDTLMISRTPEVTCVVVDVSHEDPEVKFNWYVDGVEVHNAKTKPREEQYNSTYRVVSVLTVLHQDWLNGKEYKCKVSNKALPAPIEKTISKAKGQPREPQVYTLPPSREEMTKNQVSLTCLVKGFYPSDIAVEWESNGQPENNYKTTPPVLDSDGSFFLYSKLTVDKSRWQQGNVFSCSVMHEALHNHYTQKSLSLSPG
notes: Mouse variable regions on human IgG1 3M and human kappa; also called hu-mu 4D8 chimera; mouse-human chimeric antibody 4D8

— patent publication US20210101998A1 (Pfizer, published 2021)
